Results taken from article PMC11425648.

Biological target: free UbcH8 (Ube2L6), GST tag removed (human)
Experiment: SAXS; free UbcH8 (GST removed) at 300 μM, 10 °C, six 10-min frames; dimer crystal structure 1WZV fitted to the dummy atom model

Substance: free UbcH8 (Ube2L6), GST tag removed (enzyme)
- stoichiometry N: 2
